Data set [1] concerns the target T1, human VDAC2 (Voltage Dependent Anion Channel 2), N-terminal hexahistidine tagged (human), P45880.
T1 chain: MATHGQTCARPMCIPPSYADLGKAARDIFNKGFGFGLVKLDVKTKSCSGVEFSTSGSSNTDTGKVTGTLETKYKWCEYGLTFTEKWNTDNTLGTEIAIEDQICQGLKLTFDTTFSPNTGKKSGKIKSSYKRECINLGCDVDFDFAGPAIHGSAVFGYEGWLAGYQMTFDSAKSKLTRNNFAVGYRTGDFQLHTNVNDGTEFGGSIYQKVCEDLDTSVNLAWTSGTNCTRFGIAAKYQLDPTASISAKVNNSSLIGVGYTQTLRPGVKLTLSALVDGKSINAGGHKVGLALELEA
The experiment in a line: vesicle occupancy statistics (Poisson analysis of the dithionite channel assay); different amounts of protein reconstituted into a fixed quantity of LUVs; fraction of vesicles with a channel against PPR*, one-phase exponential fit; MW 31 kDa, vesicle diameter 150 nm. Particulars: remark: other sources report otherwise.

In data set [2] the target is T2, C-terminal Twin-Strep-tagged yeast VDAC (Por1-TS) (S. cerevisiae), P04840.
T2 chain: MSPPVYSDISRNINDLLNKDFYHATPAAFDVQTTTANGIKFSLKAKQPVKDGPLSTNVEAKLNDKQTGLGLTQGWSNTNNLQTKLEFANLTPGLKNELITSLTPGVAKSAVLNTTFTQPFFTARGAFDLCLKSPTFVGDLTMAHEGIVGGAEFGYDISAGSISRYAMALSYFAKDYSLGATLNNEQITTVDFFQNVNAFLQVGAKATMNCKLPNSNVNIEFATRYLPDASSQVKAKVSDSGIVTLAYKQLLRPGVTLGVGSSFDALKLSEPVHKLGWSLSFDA
The experiment in a line: cross-linking; EGS cross-linking after reconstitution into LUVs (POPC/POPG) in 10 mM MOPS/KOH pH 7.0, 100 mM KCl; 16x mole excess of EGS, 20 °C, 40 min; SDS-PAGE immunoblot (anti-His for human VDAC, anti-VDAC1/Porin for yeast porin). Particulars: remark: other sources report otherwise. Background: A western blot detects proteins with antibodies after separation by electrophoresis.

Data set [3] concerns the molecule itself. Described as above.

B1: human VDAC2 (Voltage Dependent Anion Channel 2), N-terminal hexahistidine tagged, P45880 1-294 (natural protein)
chain: MATHGQTCARPMCIPPSYADLGKAARDIFNKGFGFGLVKLDVKTKSCSGVEFSTSGSSNTDTGKVTGTLETKYKWCEYGLTFTEKWNTDNTLGTEIAIEDQICQGLKLTFDTTFSPNTGKKSGKIKSSYKRECINLGCDVDFDFAGPAIHGSAVFGYEGWLAGYQMTFDSAKSKLTRNNFAVGYRTGDFQLHTNVNDGTEFGGSIYQKVCEDLDTSVNLAWTSGTNCTRFGIAAKYQLDPTASISAKVNNSSLIGVGYTQTLRPGVKLTLSALVDGKSINAGGHKVGLALELEA
What is called stoichiometry N is the number of molecules, sites or subunits per partner or assembly. In turn, B1 showed a stoichiometry N in data set [1] of 10.

B2: C-terminal Twin-Strep-tagged yeast VDAC (Por1-TS), P04840 1-283 (natural protein)
chain: MSPPVYSDISRNINDLLNKDFYHATPAAFDVQTTTANGIKFSLKAKQPVKDGPLSTNVEAKLNDKQTGLGLTQGWSNTNNLQTKLEFANLTPGLKNELITSLTPGVAKSAVLNTTFTQPFFTARGAFDLCLKSPTFVGDLTMAHEGIVGGAEFGYDISAGSISRYAMALSYFAKDYSLGATLNNEQITTVDFFQNVNAFLQVGAKATMNCKLPNSNVNIEFATRYLPDASSQVKAKVSDSGIVTLAYKQLLRPGVTLGVGSSFDALKLSEPVHKLGWSLSFDA
With B2, the stoichiometry N in data set [2] worked out at 2.

B3: human VDAC1 pentamutant VDAC1-5V (T60V, Y62V, E73V, T83V, S101V), N-terminal hexahistidine tagged (natural protein, UniProt P21796 1-283, looked up)
chain: MAVPPTYADLGKSARDVFTKGYGFGLIKLDLKTKSENGLEFTSSGSANTETTKVTGSLEVKVRWTEYGLTFTVKWNTDNTLGVEITVEDQLARGLKLTFDVSFSPNTGKKNAKIKTGYKREHINLGCDMDFDIAGPSIRGALVLGYEGWLAGYQMNFETAKSRVTQSNFAVGYKTDEFQLHTNVNDGTEFGGSIYQKVNKKLETAVNLAWTAGNSNTRFGIAAKYQIDPDACFSAKVNNSSLIGLGYTQTLKPGIKLTLSALLDGKNVNAGGHKLGLGLEFQA
notes: human VDAC1 with five substitutions to valine; pCold vector
Turning to B3, the binding result in data set [3] is given as “binds”.

The record behind these values is PMC10709637, “Phospholipids are imported into mitochondria by VDAC, a dimeric beta barrel scramblase” (Nature Communications, 2023).
